Data published in article PMC8748714 (2022).
Substitutions are numbered along the chain they refer to. No end group written: not given here.

T1: GLP-1R E138A (Homo sapiens)
T1 chain: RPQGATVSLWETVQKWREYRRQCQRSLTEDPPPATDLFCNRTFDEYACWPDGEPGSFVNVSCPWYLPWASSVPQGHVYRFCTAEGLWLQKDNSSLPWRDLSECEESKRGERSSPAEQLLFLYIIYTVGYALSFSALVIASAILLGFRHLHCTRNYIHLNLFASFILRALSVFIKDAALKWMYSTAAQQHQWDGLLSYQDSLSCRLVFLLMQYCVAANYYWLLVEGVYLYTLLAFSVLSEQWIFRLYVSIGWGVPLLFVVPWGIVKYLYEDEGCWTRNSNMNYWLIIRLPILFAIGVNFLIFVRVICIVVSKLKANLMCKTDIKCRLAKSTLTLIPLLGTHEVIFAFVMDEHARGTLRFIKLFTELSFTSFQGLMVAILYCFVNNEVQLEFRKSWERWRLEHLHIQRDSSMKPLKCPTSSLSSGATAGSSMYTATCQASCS

T2: GLP-1R L141A (Homo sapiens)
T2 chain: T1 chain with A115E, L118A

T3: GLP-1R L201A (Homo sapiens)
T3 chain: T1 chain with A115E, L178A

T4: GLP-1R Q211A (Homo sapiens)
T4 chain: T1 chain with A115E, Q188A

T5: GLP-1R S193A (Homo sapiens)
T5 chain: T1 chain with A115E, S170A

T6: GLP-1R S206A (Homo sapiens)
T6 chain: T1 chain with A115E, S183A


How the values were obtained:
[1] = target: T1, GLP-1R E138A
[2] = target: T2, GLP-1R L141A
[3] = target: T3, GLP-1R L201A
[4] = target: T4, GLP-1R Q211A
[5] = target: T5, GLP-1R S193A
[6] = target: T6, GLP-1R S206A

Row | IC50 [1] [nM] | IC50 [2] [nM] | IC50 [3] [nM] | IC50 [4] [nM] | IC50 [5] [nM] | IC50 [6] [nM] | Binder
1 | 45.7 | 603 | 107 | 19.5 | 14.8 | 16.6 | HSQGTFTSDYSKYLDSRRAQDFVQWLMNTKRNRNNIA [oxyntomodulin]
2 | 6.92 | 14.1 | 38.9 | 2.34 | 5.01 | 4.9 | HAEGTFTSDVSSYLEGQAAKEFIAWLVKGR (not fully specified (C-terminus)) [glucagon-like peptide-1]
